Measurements taken from patent US10851152B2, “Polymerized peptide and gel having collagen-like structure” (WASEDA UNIVERSITY, priority 2015, dated 2020).

How the values were obtained:
[1] = Hydrogel formation judged by holding of a stainless ball; assay type: physicochemical; set-up: key to gel formation, Time (hour) 9 / gel formation, Time (hour) 12 / gel formation, Time (hour) 15 / gel formation, Time (hour) 24 / gel formation, Time (hour) 32 / gel formation, Time (hour) 74 / gel formation, Peptide concentration 0.1% (w/v) / gel formation, Peptide concentration 0.2% (w/v) / gel formation, Peptide concentration 0.3% (w/v) / gel formation, Peptide concentration 0.5% (w/v) / gel formation, Peptide concentration 0.7% (w/v) / gel formation, Peptide concentration 1.0% (w/v): ◯: Gelated; X: Failed to gelate; conditions: for gel-forming capability / gel formation, Time (hour) 9 / gel formation, Time (hour) 12 / gel formation, Time (hour) 15 / gel formation, Time (hour) 24 / gel formation, Time (hour) 32 / gel formation, Time (hour) 74: 1% (w/v) peptide; for gel-forming capability: 10% DMSO, up to three days; for gel formation, Time (hour) 9: 9 hour; for gel formation, Time (hour) 12: 12 hour; for gel formation, Time (hour) 15: 15 hour; for gel formation, Time (hour) 24: 24 hour; for gel formation, Time (hour) 32: 32 hour; for gel formation, Time (hour) 74: 74 hour
Description: Degassed water was used to prepare a peptide solution having a concentration of 1.11% (w/v) or 1.66% (w/v), and the solution was then put into a PCR tube. After heating this solution at 80° C. for 5 min using a polymerase chain reaction (PCR) machine (TaKaRa PCR Thermal Cycler, TAKARA BIO INC.), the solution was then left to stand at 4° C. overnight. By adding DMSO and water to this solution, there was prepared a peptide solution having a concentration of 10% DMSO, 0.1 to 1.5% (w/v). The PCR tube was then filled with a mineral oil in a way such that the mineral oil covered the liquid surface, followed by allowing the solution to stand at room temperature for a given period of time to achieve a gel. Then, gel formation was determined by looking at whether a stainless ball could be held by the gel.

[2] = Remaining thiol group (Ellman's reagent) in oxidative polymerization reaction; assay type: physicochemical; conditions: 10% DMSO, peptide 1% (w/v)
Description: Degassed water was used to prepare a peptide solution having a concentration of 1.11% (w/v), and the solution was then put into a PCR tube. After heating this solution at 80° C. for 5 min, it was then left to sand still at 4° C. overnight. By adding DMSO to this solution, there was prepared a peptide solution having a final concentration of 10% DMSO, peptide 1% (w/v). The PCR tube was then filled with a mineral oil in a way such that the mineral oil covered the surface of the solution. In every measurement, the mineral oil was eliminated from the peptide solution to prepare a peptide solution for oxidation monitoring. Ellman's reagent was prepared in a way such that 9 mg/ml of DTNB was present in 50 mM of a phosphate buffer solution (pH 8.4). 33 mM phosphate buffer solution (pH 8.4) and Ellman's reagent 1.5 mg/ml were left to stand for […], then a light absorbance was then measured after a solution with a final concentration of peptide 0.167 mg/ml. Recorded were changes in absorbance with time, with a moment when DMSO was added being a starting point (0 hour). Since the Ellman's reagent generates 5-mercapto-2-nitrobenzoate (λ max=412 nm, ε=1.55×10^4) depending on the amount of thiol groups (referred to as “SH groups” hereunder) in the peptide, measured was a absorbance at 412 nm. After the measurement, optical path length was compensated by measuring absorbance at 997 nm and 900 nm.

[3] = Hydrogel stability to reduction treatment (DTT) or water with pipetting; assay type: physicochemical; conditions: water added instead of reducing solution; pipetting about 90 times/min
Description: There, verification was made on whether gel caused a collapse by breaking the disulfide cross-linking by a reduction treatment. A reducing solution of 100 μl (100 mM DTT, 50 mM phosphate buffer solution (pH 8.4)) or water was added to the hydrogel (30 μl) prepared. […] Then, pipetting procedure was respectively performed at a frequency of about 90 times/min and a volume of 100 μl/each time, using a yellow tip (up to 200 μl).

[4] = system: MDA-MB-231; test: Cell adhesion assay on coated 96-well plate, MDA-MB-231; assay type: cell-based, Human; conditions: coated 96-well plate
Description: D-MEM High Glucose, D-MEM Low Glucose and 0.5% trypsin/EDTA were purchased from Wako Pure Chemical Industries, Ltd. (Osaka); FBS, penicillin. streptomycin (100×) were purchased from Invitrogen (Thermo Fisher Scientific corporation). Human mammary gland cancer (MDA-MB-231) was purchased from ATCC; Human skin fibroblasts (HDF) were purchased from Cell Applications. MDA-MB-231 was cultured using DMEM High Glucose (10% FBS, 100 Units/ml penicillin, 100 μg/ml streptomycin), and then maintained; and HDF was cultured using DMEM Low Glucose (10% FBS, 100 Units/ml penicillin, 100 μg/ml streptomycin), and then maintained. When used in cell adhesion assay and Western blotting, the cells were treated with 0.05% trypsin/EDTA, and then collected in a 15 ml tube to be subjected to centrifugal treatment at 1,200 rpm for four minutes. After the removal of the supernatant, the cells were suspended with an incubation medium by which the cells were incubated at 37° C. for 20 to 30 min and then recovered. Such cell suspension was used for cell adhesion assay and Western blotting.
Type I collagen (KOKEN CO., LTD, Tokyo) and BSA (Jackson Immuno Research Laboratories Inc., USA), in an aqueous solution as 30 μg/ml, were added to a 96-well plate (Nunc MicroWell 96-Well Microplates) by an amount of 50 μl/well, followed by drying the sample for two nights. Collagen-like peptides having no Cys residue were prepared as aqueous solutions of 1 to 3 mg/ml, and then heated at 95° C. for 5 min, followed by storing them at 4° C. overnight to form the triple-helical structure. Then, they were diluted to 30 μg/ml, and then added to a 96-well plate in an amount of 50 μl/well followed by drying them for two nights. Collagen-like peptides having Cys residues were dissolved in a degassed 0.05% (v/v) TFA aqueous solution, followed by preparing to a concentration of 300 μg/ml, and then heating the sample at 80° C. for 5 min. […] Further, a mineral oil was layered on the peptide solution, and such peptide solution was then oxidized at room temperature until thiol could no longer be detected by Ellman's test. […]

[5] = oxidizing conditions: room temperature, three days

CCCC(POG)6PRG(POG)5CCGC [CCCC2]
gel-forming capability ([1]; room temperature): capable of turning into gels | gel formation, Time (hour) 9 [1]: X | gel formation, Time (hour) 12 [1]: ◯ | gel formation, Time (hour) 15 [1]: ◯ | gel formation, Time (hour) 24 [1]: ◯ | gel formation, Time (hour) 32 [1]: ◯ | gel formation, Time (hour) 74 [1]: ◯ | gel formation, Peptide concentration 0.1% (w/v) ([1]; oxidizing conditions: room temperature, three days, 0.1% (w/v)): X | gel formation, Peptide concentration 0.2% (w/v) ([1]; oxidizing conditions: room temperature, three days, 0.2% (w/v)): X | gel formation, Peptide concentration 0.3% (w/v) [1, 5]: ◯ | gel formation, Peptide concentration 0.5% (w/v) [1, 5]: ◯ | gel formation, Peptide concentration 0.7% (w/v) [1, 5]: ◯ | gel formation, Peptide concentration 1.0% (w/v) [1, 5]: ◯ | concentration at which peptide still turned into a gel ([1]; room temperature, three days): 0.3 % (w/v) | time in which peptide turned into a gel [2]: 12 h | gel collapse on adding water [3]: gel collapse was not observed

gelatin
cell adhesion of MDA-MB-231 [4]: Significant cell adhesion was observed

CCC(POG)6PRG(POG)5CCC (CCCPPGPPGPPGPPGPPGPPGPRGPPGPPGPPGPPGPPGCCC; not fully specified; hydroxyproline; MOD_RES (5)..(5) 4-Hydroxyproline; MOD_RES (8)..(8) 4-Hydroxyproline; MOD_RES (11)..(11) 4-Hydroxyproline; MOD_RES (14)..(14) 4-Hydroxyproline; MOD_RES (17)..(17) 4-Hydroxyproline; MOD_RES (20)..(20) 4-Hydroxyproline; MOD_RES (26)..(26) 4-Hydroxyproline; MOD_RES (29)..(29) 4-Hydroxyproline; MOD_RES (32)..(32) 4-Hydroxyproline; MOD_RES (35)..(35) 4-Hydroxyproline; MOD_RES (38)..(38) 4-Hydroxyprolin) [CCC2]
gel-forming capability ([1]; room temperature): capable of turning into gels | gel formation, Time (hour) 9 [1]: X | gel formation, Time (hour) 12 [1]: X | gel formation, Time (hour) 15 [1]: X | gel formation, Time (hour) 24 [1]: ◯ | gel formation, Time (hour) 32 [1]: ◯ | gel formation, Time (hour) 74 [1]: ◯ | gel formation, Peptide concentration 0.3% (w/v) [1, 5]: X | gel formation, Peptide concentration 0.5% (w/v) [1, 5]: ◯ | gel formation, Peptide concentration 0.7% (w/v) [1, 5]: ◯ | gel formation, Peptide concentration 1.0% (w/v) [1, 5]: ◯ | time in which peptide turned into a gel [2]: 24 h | gel collapse on adding water [3]: gel collapse was not observed

(POG)6PRG(POG)5CC (PPGPPGPPGPPGPPGPPGPRGPPGPPGPPGPPGPPGCC; not fully specified; hydroxyproline; MOD_RES (2)..(2) 4-Hydroxyproline; MOD_RES (5)..(5) 4-Hydroxyproline; MOD_RES (8)..(8) 4-Hydroxyproline; MOD_RES (11)..(11) 4-Hydroxyproline; MOD_RES (14)..(14) 4-Hydroxyproline; MOD_RES (17)..(17) 4-Hydroxyproline; MOD_RES (23)..(23) 4-Hydroxyproline; MOD_RES (26)..(26) 4-Hydroxyproline; MOD_RES (29)..(29) 4-Hydroxyproline; MOD_RES (32)..(32) 4-Hydroxyproline; MOD_RES (35)..(35) 4-Hydroxyproline) [CC1]
gel-forming capability ([1]; room temperature): did not turn into a gel | ratio of SH amount ([2]; SH amount at 0 hour being 100%, 74 hours): approximately 0%

YCC(POG)6PRG(POG)5CCY (YCCPPGPPGPPGPPGPPGPPGPRGPPGPPGPPGPPGPPGCCY; not fully specified; hydroxyproline; MOD_RES (5)..(5) 4-Hydroxyproline; MOD_RES (8)..(8) 4-Hydroxyproline; MOD_RES (11)..(11) 4-Hydroxyproline; MOD_RES (14)..(14) 4-Hydroxyproline; MOD_RES (17)..(17) 4-Hydroxyproline; MOD_RES (20)..(20) 4-Hydroxyproline; MOD_RES (26)..(26) 4-Hydroxyproline; MOD_RES (29)..(29) 4-Hydroxyproline; MOD_RES (32)..(32) 4-Hydroxyproline; MOD_RES (35)..(35) 4-Hydroxyproline; MOD_RES (38)..(38) 4-Hydroxyprolin) [YCC2]
gel-forming capability ([1]; room temperature): capable of turning into gels | gel formation, Time (hour) 9 [1]: X | gel formation, Time (hour) 12 [1]: X | gel formation, Time (hour) 15 [1]: X | gel formation, Time (hour) 24 [1]: X | gel formation, Time (hour) 32 [1]: X | gel formation, Time (hour) 74 [1]: ◯ | gel formation, Peptide concentration 0.3% (w/v) [1, 5]: X | gel formation, Peptide concentration 0.5% (w/v) [1, 5]: X | gel formation, Peptide concentration 0.7% (w/v) [1, 5]: X | gel formation, Peptide concentration 1.0% (w/v) [1, 5]: ◯ | time in which peptide turned into a gel [2]: 74 h | gel collapse on adding water [3]: gel collapse was observed
